Measured values as given in the domain aggregation screens of Martell et al. (2025).

Assay: soluble fraction after stress (log2 fold change); higher = more stays soluble; pooled small domains, quantitative proteomics
Settings: stress: 50 degC
In short: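 The stress applied to every library was 50°C. These custom libraries of small protein domains were pooled and measured at high throughput with quantitative proteomics as the read-out. Aggregation propensity is expressed as the base-two logarithm of the fold change in how much of each protein remains soluble. The higher the value, the more of that protein stays in solution.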

Sequence | soluble fraction (log2)
HMEIKDQADAYGKMEPASAAAILSEMTNDLTLVAKILDSMQTSKSALILQNMKPTTAAQVTTKMTAMK | 0.0219
HMGDPVRVDKFLHDMNVGTRSQIRKLIKEKAVFVNDVVAKSGRVKVDPVVDQVRLGEQVITYQ | -0.115
HMTFSDKIRELRKQKGVSQAVVAEYLGITKQAYSLYETGKREPDFDSLLKLAEYFGTDTDSLLY | -0.309
HMADEGFRQTVLAVLARWESKIHHGQYNALKAKVMNGNWSSFVKQVVKFQGKFIHPDAAKELLGLFG | -0.0749
HMKRNLVSVLDHIVGIGPKRRQSLRTHFGSLEKIKEASVEELAAAPGMNRTSAEAVRHFFDAQQELRGK | 0.537
HMADIWDLLRSEYKLTETDVRMLTDMLPDELMNDFRSEVLALRDRMNRYKVNNPKSYVVTSLKNFIIQHTP | -0.263
HMNPNPYIVLGVDKSMPFGEIKKVYQRKRREFHPDSLVAKGLPDELLQKAQDKFIAIQEAYKSIEKNQV | 0.317
HMPTFAEKLHEVRKARDFTQDQLAKEMNVSRQTISHWENGRAVPDIDTIKHLSQVLDYNFLV | 0.124
HMVNIEAEVGRRLRQLRARRGLSLRALADLSGLNVNTLSLIENSKTSPSVSTLQQLARSLQVPITTFFESD | -0.447
HMANSANARKSLVSKLIAGGKIASQSDLVKALKKQGIVVTQGTASRDLEDIGAIRVRNSEGEIVYALT | 0.081
HMREIEVNYAAGDSVRVIDGPLAGFIGVVSSVEPDKNKVNVTVSMFGRETPVELELDQVETLD | 0.159
HMKSIRIPFILTEGPNSQKITIDIDSDEEFRIGDVFDEDDKLWSINQILISGDRKAKMAIASEVTSISALR | -2.39
HMNEFNEVVPDSLEGERLDRLLAFIGNISRSEASNIIKGGEVLINGKVVTRPSFKVTLGNRVEFSIRD | -0.387
HMNIVKGDTTANVRVVQQRLYNLGYYTYKVDGIWGTRTKTAVKKFQKDKGLVADGIVGAKTEKALGITLT | -1.29
HMVFQTAAEKAYEIISKKIMKGEYEPGMRLVRRQLAQELGVSPIPILEAMKRLEQDGLIEYKAHWGSIVTI | -1.97
HMVGMDRYFKIKNIKDSSAAFERDYILHFLKENDWMVSKTAQMIGLERTTLYKKIKQLGLASMLEN | -2.85
HMEYEETMSQIKHNLNLLPRQQRVIIEMAKFDELTPAEIAKQLGISVQTVRNQLSTGLKKLRQLL | -0.0252
HMGPTLSPAEKRVFEVIPYDAILQDMVIRAAELPPGEVLAALTTLELKGLIKRLPGNLVMRRAR | 0.0188
HMEPVTETVYAMDTVNIRAAADQTSEKIGSVTVGTALTRTGTDGDWSIIDYNGTTGYVKSEFLSNTAPEV | -0.00262
HMHHSGLRQSQFDEISRQIRSLLEMESLSLQELKTRMEDVPEEQLTKVVSYLLSEEIIRQENGRLQ | -0.0768
HMARDSYNGVQRTISTLLGQGNYDRAYDVAVGARGQMSKQQWSDVAKRIYEVSGIKIDDSVKY | 0.159
HMRQNPESFLNHKVKKNESLESLTKKYELTENEIIFYNPLIQKIGLKKRMILKIPIYNNQNLVTKSVD | 0.256
HMFQRLPFSFANRYKMVLEYQHPERPPVLYYVEPLKAAAILEVSRVIKSGFTPQAIVSDEFEKKLTEAYQR | -1.1

Sequence | soluble fraction (log2)
HMTPKVTVPDVTGQTFSSAKQILESLGFTVKQQGSTDETDQVIDQNPTSGEADKGATITLTTKSS | 0.297
HMEEFIEHTVEKGEFLSAIIVAYNQHLKSKGFKSITTRDILNANPKLKPELIQVGQKIKIPRRKK | 0.29
HMNTEEKILEKEFLMLYSELGLQPKNIYELMENTGLKYEKLVEMLLQLQLKGLVEQPSYNYYSRL | -1.02
HMGTMKGFVDGSSVHLRSGPSLSESIRAKVVKGQTLYITERRGDWYRATVHGGGEGWIHTSLVKLAG | 0.178
HMNTPHLTPREREVLKGIVDGLINKEIAARMGVSVATVITHRNNLTEKLGTRSVSALTIFAVMHGIVR | -2.49
HMSAPTAFSERELELLAGMRRGASNKAMAEQLFISVNTVKYHRANLMRKLGARDRNEALEVAARLG | -0.0071
HMEVPDTIIRLRELVAAMPEQWQKVYRLVFMEGLSKAKAGKKIGISDVRVGQLVKKINAAIAGDETLK | -0.714
HMSDPVDDLLLRISQQAGVARGQLVAELNMLVQDRFGGNLRHEAAAVLMAKRYGIEFRDLLPALREHLVKN | -0.00206
HMEVTLGLGSMVRLLGEPYLGSTGRVVELPDQAERFASGLTAKVAVVERHDGELIRVPVTNLLLME | -0.191
HMGVVEEVAADFEGRAVVGKVDVDEQTELARRFGIMSIPTLVVMKGGKVVEQAVGARGKADIAAMLERH | 0.0848
HMKTITVEDEQAGKRLDKALAELFPHYSRSALEKLIKEGQVLVNKSFVKSKYSLKLGDEISLQFEQL | 0.173
HMTSGPAWPALSAQQRSVLAPLQRDWHTIDAARKAKWLEVAARFPSMPAEERQRVQERMAEWA | -0.0518
HMKQISNTDELETMVKKIIDDNEEQVNKYRGGNEKLFGWFVGQAMKNTGGTANPKVVNEILSKLLK | 0.0976
HMISINVIGEMISGSYGNTPFSRTYEKDIYEQMVKLSDDADQAQTVEEYNKILAEFSLLTTEDLK | -0.698
HMKTALDEAKDFLNGALSKGHRPASDVVDEAKEASISEKTLKRAKLAIGIITRKEGFGSEGKWVWELPAR | -0.341
HMRFGNHHVYRTLMVLSDQKRKGRKQIADAVGIGEGSMRTIIEYLRGLDMIDIRQTGVKITRHGNAFL | 0.0164
HMKSARQIAILEIIAEKSIETQEDLADALRLRGFQVTQATVSRDIKELRLVKALAPDGTYRYATAEK | -0.0157
HMLYDNQLPDWAGQMVKNHGLTISPKALVILVDHIGNDLSRIENEIEKLMLNLGTRKSITEDDVEN | -1.28
HMLQFTYPRLHTKKSWYVDFMSFDPGAGKMRRKKFMLDGIPKITDRRKRAAELIEVLTKQLRAGWSPWVNV | -3.59
HMRDGHEQLQGVLSAIKFHQANFLIGVLDDGTTVKGNMLSPQVGLEYTFRGRRERHPRWGEQFAFMDYRV | -2.76
HMATSNDTQITGSLALRFDGSGDTFTVNVNGDDKLEINTEGTVIYKPLTTAPTYVSGGLFFSSSGDFYVG | -0.0386
HMVSPEVEMLRAAVETMSERQKQVYELHYLRGFNVKETAAILGMSSPTVTAHKKRIMEIIKKFFE | -1.22
HMQKTIDWSQVDKEQYLSAMERSPVNDLEIKAILAKALTSDINNRELFMKGLDHSYYFEGYQLFKSE | -0.281

Sequence | soluble fraction (log2)
HMKLHQDLQIKVIDAANNKVEFIDTATGTSLATRTLDVNGVSKARGFEATLYGVVEDNDVFHIA | 0.158
HMYTTHTQSELNEAARFNGRATYQKGIYYNESKKEHFKVVNGKYQALPNVKQVNGDSWIDKTGITHKG | -0.171
HMNNFTQSALDTIDGIGKRRKKLLLNHFGSVKLIENASIEDIKKIDGISDLVANKIYNFFNKN | -0.652
HMVYLPGEEIPLKIIQEGKESGQGVGYLEDGTMVVVENGRRYLNQEVLVQVTKILQTNAGRLIFAVP | -0.346
HMGVRPAALGFQKVRIEPQVGTFREASGDVITPRGLIHAEWKRDEENALHLHYTLPDGVAYA | -0.0327
HMVWMIEKDQSVILVNKLERIQVEALGKALENGNFGDRIRVINNKSGQKLLGIVESEKKIQIISKI | -2.44
HMKIELSDNEKIIYDLLSSQHVLLSEIKDKAGLSNKAWDKSTKSLRKLGLIAVEKKDDDIYISKL | -0.0233
HMGKIILLFSDDDGVFDTALYRVRNYDGHRFAQSLGNAEMKWRHSEDEYFDFVLTSLREDGYDIEEIE | -1.22
HMGAKLTTAQGGTLKVLVKGKKTHTPTIELRDKDPDFPNAKVVQPDINKGNKQIAHGINGVL | 0.514
HMSQDEVVADMKADLGPDADNIIRSNIQWADGLVRKGILTESEREELDVMGGTPEAQRILVKLRTMQG | 0.0777
HMVEAIDQALIEKQIQAVLQENSAAVKKYQAGKTEVLAFLIGQSMRKIAKKVDANLVKNILLEQLKNK | 0.0542
HMAAIPATVDEETYRRLKPMLKQYGILYHEFKPLRSGKKGAVELIFMEKDLALVQELLSRLKKEK | 0.422
HMFNGDPTTRESILASARAEIDQYGIIGLRLSAVAEKAQVSVPLIYKYFEDRDGLLAVVLGDW | -1.27
HMQRDELRYDQFLTALQNKEFTQLNVRFDDYTYLVTGTFQSGRPFSTRGPVSEEFIRLIESSGVQVTWLPM | -0.577
HMNLDMVINKIGIVTEDIKQDKIGEVKVLGKRWSAYSNTELKKDEKVKILSIDGVKLKVEKI | 0.191
HMKETIIPELLQNELDKNSELNDKFNTFSPYKQREFIEYIITAKQEKTQISRLQKVILMILEGRGLNN | -0.204
HMVNHEERKRLIAEATWRTISHVGIEQASVRTIAKEAGLSLGALRYYFTTQEELLRFSMQLVQERV | -0.0983
HMGANAVAAFTARVRTGPSTGYPVRISVPQGRQVRVISGPYGGWYRVSYQGLTGYTYGGLLRQG | -0.408
HMAIGSRLKVTTDATNLNIRSTPSTEGDIVGKAAHHEIVTLVEKTDDSWWKIKTNDGEEGYAYAQYLSPV | 0.12
HMEKNILPDTSPEKQYEFATSFLKVGDYSTAERAFREFVINNSEHKLAGNAQYWYAETFRIRQ | -0.101
HMRQSSLRTRELLIDAARQLFARFGVEKTTMNDIAEASKRGRRTVYMYFNSKSDVFYAVVGRE | -0.212
HMYTVQQLARLAGITPRTLRHYDAIGLLKPTRVGENGYRYYGSEALLRLQSILLYRELDMPLEDIRRVLDS | -3.15
HMEELIEMNGVVMEILPDSRYRVTLDNGHKLIAYTGGKMKKNHIRILAGDKVTLELSPYDINNGRITFRHI | -1.28
